Residue numbers refer to the chain shown, from its start. Names may count otherwise. “And” between values parts separate entries of the source, which are not always exact repeats. Identical values can stand only once.
B1: KB001 mouse Fab VL S32A (Fab, V domains shown)
VH: EVQLKQSGPGLVAPSQSLSITCTVSGFSLSIYSVHWVRQPPGKGLEWLGMIWGGGSSDYNSALKSRLSISKDNSKSQVFLKMNSLQTDDTAMYYCARNGNFYAMDYWGQGTSVTVSS
VL: QIVLTQSPAIMSASLGERVTMTCTASSSVSSAFLHWYQQKPGSSPQLWIYSTSNLASGVPARFSGSGSGTSYSLTISSMEAEDAATYYCHQYHHSPYIYTFGGGTKLEIK
B2: KB001 mouse Fab VL T100K (Fab, V domains shown)
VH: B1 VH
VL: B1 VL with A32S, T100K
B3: KB001 mouse Fab VL L55Q (Fab, V domains shown)
VH: B1 VH
VL: B1 VL with A32S, L55Q
B4: KB001 mouse Fab VL L55V (Fab, V domains shown)
VH: B1 VH
VL: B1 VL with A32S, L55V
B5: KB001 mouse Fab VL S32Q (Fab, V domains shown)
VH: B1 VH
VL: B1 VL with A32Q
B6: KB001 mouse Fab VL N54I (Fab, V domains shown)
VH: B1 VH
VL: B1 VL with A32S, N54I
B7: KB001 mouse Fab VL S53D (Fab, V domains shown)
VH: B1 VH
VL: B1 VL with A32S, S53D
B8: KB001 mouse Fab VL S53C (Fab, V domains shown)
VH: B1 VH
VL: B1 VL with A32S, S53C
B9: KB001 mouse Fab VL L34I (Fab, V domains shown)
VH: B1 VH
VL: B1 VL with A32S, L34I
B10: KB001 mouse Fab VL T52L (Fab, V domains shown)
VH: B1 VH
VL: B1 VL with A32S, T52L
B11: KB001 mouse Fab VL F33N (Fab, V domains shown)
VH: B1 VH
VL: B1 VL with A32S, F33N
B12: KB001 mouse Fab FASEBA VH S30E (Fab, V domains shown)
VH: B1 VH with S30E
VL: B1 VL with A32S
B13: KB001 mouse Fab VL S53V (Fab, V domains shown)
VH: B1 VH
VL: B1 VL with A32S, S53V
B14: KB001 mouse Fab VL S53E (Fab, V domains shown)
VH: B1 VH
VL: B1 VL with A32S, S53E
B15: KB001 mouse Fab VL T100D (Fab, V domains shown)
VH: B1 VH
VL: B1 VL with A32S, T100D
B16: KB001 mouse Fab VL N54E (Fab, V domains shown)
VH: B1 VH
VL: B1 VL with A32S, N54E
B17: KB001 mouse Fab VL T52M (Fab, V domains shown)
VH: B1 VH
VL: B1 VL with A32S, T52M
B18: KB001 mouse Fab VL S32W (Fab, V domains shown)
VH: B1 VH
VL: B1 VL with A32W
B19: KB001 mouse Fab VL L55H (Fab, V domains shown)
VH: B1 VH
VL: B1 VL with A32S, L55H
B20: KB001 mouse Fab VL N54W (Fab, V domains shown)
VH: B1 VH
VL: B1 VL with A32S, N54W
B21: KB001 mouse Fab VL S53A (Fab, V domains shown)
VH: B1 VH
VL: B1 VL with A32S, S53A
B22: KB001 mouse Fab VL S53L (Fab, V domains shown)
VH: B1 VH
VL: B1 VL with A32S, S53L
B23: KB001 mouse Fab VL N54A (Fab, V domains shown)
VH: B1 VH
VL: B1 VL with A32S, N54A
B24: KB001 mouse Fab VL S32G (Fab, V domains shown)
VH: B1 VH
VL: B1 VL with A32G
B25: KB001 mouse Fab VL S53R (Fab, V domains shown)
VH: B1 VH
VL: B1 VL with A32S, S53R
B26: KB001 mouse Fab VL S32Y (Fab, V domains shown)
VH: B1 VH
VL: B1 VL with A32Y
B27: KB001 mouse Fab VL L34V (Fab, V domains shown)
VH: B1 VH
VL: B1 VL with A32S, L34V
B28: KB001 mouse Fab VL L55T (Fab, V domains shown)
VH: B1 VH
VL: B1 VL with A32S, L55T
B29: KB001 mouse Fab VL T52K (Fab, V domains shown)
VH: B1 VH
VL: B1 VL with A32S, T52K
B30: KB001 mouse Fab VL N54F (Fab, V domains shown)
VH: B1 VH
VL: B1 VL with A32S, N54F
B31: KB001 mouse Fab VL S53W (Fab, V domains shown)
VH: B1 VH
VL: B1 VL with A32S, S53W
B32: KB001 mouse Fab VL S53Y (Fab, V domains shown)
VH: B1 VH
VL: B1 VL with A32S, S53Y
B33: KB001 mouse Fab VL T52R (Fab, V domains shown)
VH: B1 VH
VL: B1 VL with A32S, T52R
B34: KB001 mouse Fab VL L55S (Fab, V domains shown)
VH: B1 VH
VL: B1 VL with A32S, L55S
B35: KB001 mouse Fab VL L34M (Fab, V domains shown)
VH: B1 VH
VL: B1 VL with A32S, L34M
B36: KB001 mouse Fab VL N54L (Fab, V domains shown)
VH: B1 VH
VL: B1 VL with A32S, N54L
B37: KB001 mouse Fab VL L55K (Fab, V domains shown)
VH: B1 VH
VL: B1 VL with A32S, L55K
B38: KB001 mouse Fab VL N54D (Fab, V domains shown)
VH: B1 VH
VL: B1 VL with A32S, N54D
B39: KB001 mouse Fab VL F33H (Fab, V domains shown)
VH: B1 VH
VL: B1 VL with A32S, F33H
B40: KB001 mouse Fab VL N54K (Fab, V domains shown)
VH: B1 VH
VL: B1 VL with A32S, N54K
B41: KB001 mouse Fab VL S32P (Fab, V domains shown)
VH: B1 VH
VL: B1 VL with A32P

Tests used:
[1] = biological target: HRgpA-6H (Porphyromonas gingivalis) (UniProt P28784); assay: ELISA, FASEBA Fab on coated HRgpA-6H
[2] = biological target: HRgpA-6H (Porphyromonas gingivalis) (UniProt P28784); assay: ELISA on coated HRgpA-6H

| Binder | OD450nm [1] | Ratio OD(Variant)/OD(WT) [1] | OD450nm [2] | Ratio OD(Variant)/OD(WT) [2] |
| --- | --- | --- | --- | --- |
| B1 | 0.748 and 0.805 | 0.885 and 0.953 | – | – |
| B2 | 0.625 | 1.19 | – | – |
| B3 | 0.711 and 0.692 and 0.684 | 0.907 and 0.883 and 0.873 | – | – |
| B4 | 0.706 | 0.901 | – | – |
| B5 | 0.716 | 0.847 | – | – |
| B6 | 0.755 and 0.772 and 0.754 | 0.964 and 0.985 and 0.962 | – | – |
| B7 | 0.775 | 0.984 | – | – |
| B8 | 0.697 | 0.885 | – | – |
| B9 | 0.67 | 0.884 | – | – |
| B10 | 0.769 | 0.977 | – | – |
| B11 | 0.64 | 0.844 | – | – |
| B12 | – | – | 0.567 | 1.12 |
| B13 | 0.702 | 0.891 | – | – |
| B14 | 0.766 | 0.973 | – | – |
| B15 | 0.645 | 1.23 | – | – |
| B16 | 0.744 and 0.74 | 0.95 and 0.944 | – | – |
| B17 | 0.662 | 0.841 | – | – |
| B18 | 0.649 | 0.856 | – | – |
| B19 | 0.695 and 0.731 | 0.887 and 0.933 | – | – |
| B20 | 0.646 | 0.825 | – | – |
| B21 | 0.784 | 0.996 | – | – |

| Binder | OD450nm [1] | Ratio OD(Variant)/OD(WT) [1] | OD450nm [2] | Ratio OD(Variant)/OD(WT) [2] |
| --- | --- | --- | --- | --- |
| B22 | 0.639 and 0.636 | 0.811 and 0.808 | – | – |
| B23 | 0.776 | 0.99 | – | – |
| B24 | 0.759 | 0.898 | – | – |
| B25 | 0.637 | 0.809 | – | – |
| B26 | 0.753 | 0.891 | – | – |
| B27 | 0.641 and 0.634 | 0.846 and 0.836 | – | – |
| B28 | 0.727 | 0.928 | – | – |
| B29 | 0.681 | 0.865 | – | – |
| B30 | 0.765 | 0.976 | – | – |
| B31 | 0.727 | 0.923 | – | – |
| B32 | 0.776 and 0.781 | 0.985 and 0.992 | – | – |
| B33 | 0.724 and 0.681 and 0.685 | 0.919 and 0.865 and 0.87 | – | – |
| B34 | 0.672 | 0.858 | – | – |
| B35 | 0.736 and 0.741 and 0.714 | 0.971 and 0.978 and 0.911 | – | – |
| B36 | 0.774 | 0.988 | – | – |
| B37 | 0.769 | 0.981 | – | – |
| B38 | 0.725 | 0.925 | – | – |
| B39 | 0.736 | 0.971 | – | – |
| B40 | 0.727 | 0.928 | – | – |
| B41 | 0.744 | 0.88 | – | – |

— patent publication US20230365662A1
